Results as given in patent US20170088610A1 (RINAT NEUROSCIENCE, published 2017).
Where a chain is given by its changes, count along the chain named. Names and notes keep the numbering of the source. One block for each binder: values may come before it.

Tests used:
[1] = biological target: T1, human nerve growth factor (human, UniProt P01138 122-241); assay: BIAcore SPR, Fab over immobilised human NGF
T1 construct: Immobilised on CM5 chips for BIAcore, soluble in neuron survival assays; also called human NGF; hNGF

[2] = biological target: T1, human nerve growth factor; assay: BIAcore SPR screen, Fab over immobilised human NGF
Description: (§1) A screening BIAcore assay was optimized to determine the affinity of Fab clones from libraries. Supernatants of small culture lysates were injected at […] for 2 min. Dissociation times of 10 to 15 minutes were used for determination of a single exponential dissociation rate (koff) using BIAevaluation software. […] Clones showing improved (slower) koff values were expressed at large scale and full kinetic parameters, kₒₙ and koff, were determined on purified protein.
(§2) For affinity screening experiments, each library was further paired with the corresponding CDR-grafted light or heavy chain (for example, the H1/H2 library was paired with CDR-grafted light chain), the antibody was expressed, and affinity to human NGF of the individual clones was screened using the BIACORE surface plasmon resonance (SPR) system (BIAcore, Inc. Piscataway, N.J.) according to the manufacturer's instructions and as described above. koff, kₒₙ and KD were determined. Antibody clones were ranked based on koff rates, since generally most variation in affinity is seen in koff rates, and further because koff rates are independent of antibody concentration.

[3] = biological target: T1, human nerve growth factor; assay: BIAcore SPR screen, Fab over immobilised human NGF; KD calculated from koff with kon 4e4 M-1s-1
Description: as §1, §2

[4] = biological target: T1, human nerve growth factor; assay: as above; remark: listed apart in the source
Description: as §1

[5] = biological target: T1, human nerve growth factor; assay: BIAcore SPR screen, Fab over immobilised human NGF; remark: listed apart in the source
Description: as §1

[6] = biological target: T1, human nerve growth factor; assay: BIAcore SPR screen, Fab over immobilised human NGF; KD calculated from koff with kon 4e4 M-1s-1; remark: listed apart in the source
Description: as §1
(§3) 20-80 clones from each small library were screened using BIAcore analysis as described herein. Samples were simultaneously analyzed by BIAcore for binding affinity to NGF in one channel of the BIAcore chip and for presence of Fab by binding to a penta-histag antibody in another channel of the sensor chip, to detect the his tag at the C terminus of the heavy chain. Clones that expressed protein were classified as having the same affinity, worse affinity, better affinity or no binding, using koff to classify: The results of this analysis are shown in Table 5.

[7] = biological target: T1, human nerve growth factor; assay: BIAcore SPR screen, Fab over immobilised human NGF; remark: listed apart in the source
Description: as §1, §3

[8] = biological target: T1, human nerve growth factor; assay: BIAcore SPR screen, Fab over immobilised human NGF; KD calculated from koff with kon 4e4 M-1s-1; 8L2-6D5 template, not H19-L129 template
Description: (§4) Affinities of anti-NGF Fabs and monoclonal antibodies were determined using the BIAcore3000™ surface plasmon resonance (SPR) system (BIAcore, INC, Piscaway N.J.). CM5 chips were activated with N-ethyl-N′-(3-dimethylaminopropyl)-carbodiinide hydrochloride (EDC) and N-hydroxysuccinimide (NETS) according to the supplier's instructions. Human NGF was diluted into 10 mM sodium acetate pH 4.0 and injected over the activated chip at a concentration of 0.005 mg/mL. Using variable flow time across the individual chip channels, two ranges of antigen density were achieved: 100-200 response units (RU) for detailed kinetic studies and 500-600 RU for screening assays. The chip was blocked with ethanolamine. […] HBS-EP buffer (0.01M HEPES, pH 7.4, 0.15 NaCl, 3 mM EDTA, 0.005% Surfactant […]) was used as running buffer for all the BIAcore assays.
as §1

[9] = biological target: T1, human nerve growth factor; assay: cell-based or functional assay
rat nerve growth factor = rat nerve growth factor (rat, UniProt P25427 122-241); assay: cell-based or functional assay
[10] = biological target: T1, human nerve growth factor; assay: BIAcore SPR, purified Fab over immobilised human NGF (100 RU); purified Fab 3C, 100 RU NGF on chip
Description: as §4
Briefly, several concentrations of antibodies (Fabs) were injected for 2 minutes onto a CM5 chip with 100 RU of immobilized human NGF on it, and permitted to dissociate for 1800 seconds. […] Data was analyzed using BIAevaluation software following the manufacturer's instructions.

[11] = biological target: T1, human nerve growth factor; assay: BIAcore SPR screen, Fab over immobilised human NGF; KD calculated from koff with kon 4e4 M-1s-1; screening KD calculated from koff with the fixed kon 4e4; paragraph 422 gives about 1 nM
[12] = biological target: T1, human nerve growth factor; assay: BIAcore SPR screen, Fab over immobilised human NGF; remark: listed apart in the source

T1 sequence (P01138 122-241 limits assumed): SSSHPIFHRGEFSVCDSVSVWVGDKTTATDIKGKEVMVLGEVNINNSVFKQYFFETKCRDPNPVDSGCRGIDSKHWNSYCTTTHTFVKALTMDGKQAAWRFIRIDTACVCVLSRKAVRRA
rat nerve growth factor, sequence (P25427 122-241 limits assumed): as the sequence (P01138 122-241 limits assumed) above, with S3T, I6V, R9M, M37T, D60A, D65E, M92T, G94D, V117A, A120G counted along it

B1: 8L2-4D5 (CDR-grafted antibody, template) (Fab, V domains shown)
VH: QVQLQESGPGLVKPSETLSLTCTVSGFSLIGYDINWIRQPPGKGLEWIGMIWGDGTTDYNSALKSRVTISVDTSKNQFSLKLSSVTAADTAVYYCARGGYYYGTSYYFDYWGQGTLVTVS
VL: DIQMTQSPSSLSASVGDRVTITCRASQDISNHLNWYQQKPGKAPKLLIYYISRFHSGVPSRFSGSGSGTDFTFTISSLQPEDIATYYCQQSKTLPYTFGQGTKLEIKR
- Kd [1]: ~38 nM

B3: H19-L129 template Fab with L_S91E; L_K92R and H_Y101Y; H_G103A (Fab, V domains shown)
VH: B1 VH with I34L, M50I, L63V, V71K, G103A
VL: B1 VL with D28S, H32N, I51T, S91E, K92R
notes: See note of m8
- Kd [4]: 0.37 nM
- koff [5]: 1.5e-05 s⁻¹

B5: heavy chain library clone H19 (Fab, V domains shown)
VH: B1 VH with I34L, M50I, L63V, V71K
VL: B1 VL
notes: See note of m8
- koff [2]: 0.00024 s⁻¹
- Kd [3]: 6 nM

B8: 8L2-6D5 Fab with CDR L3 mutation Y96R (Fab, V domains shown)
VH: B1 VH with V71K
VL: B1 VL with Y96R
notes: See note of m8
- Kd [6]: 42 nM
- koff [7]: 0.0017 s⁻¹

B9: heavy chain library clone H28 (Fab, V domains shown)
VH: B1 VH with I34S, N35T, M50S, V71K
VL: B1 VL
notes: See note of m8
- koff [2]: 0.00075 s⁻¹
- Kd [3]: 18.7 nM

B10: H19-L129 template Fab with L_S91E; L_K92K and H_Y101Y; H_G103A (Fab, V domains shown)
VH: B1 VH with I34L, M50I, L63V, V71K, G103A
VL: B1 VL with D28S, H32N, I51T, S91E
notes: See note of m8
- Kd [4]: 0.5 nM
- koff [5]: 2e-05 s⁻¹

B11: heavy chain library clone H18 (Fab, V domains shown)
VH: B1 VH with I34A, N35T, M50G, L63V, V71K
VL: B1 VL
notes: See note of m8
- koff [2]: 0.00042 s⁻¹
- Kd [3]: 10.5 nM

B13: 8L2-6D5 template Fab with L_S91E; L_K92A and H_Y101W; H_G103A (Fab, V domains shown)
VH: B1 VH with V71K, Y101W, G103A
VL: B1 VL with S91E, K92A
notes: See note of m8
- Kd [4]: 13 nM
- koff [5]: 0.00055 s⁻¹

B14: 8L2-6D5 template Fab with L_S91E; L_K92R and H_Y101W; H_G103A (Fab, V domains shown)
VH: B1 VH with V71K, Y101W, G103A
VL: B1 VL with S91E, K92R
notes: See note of m8
- koff [5]: 0.0001 s⁻¹
- Kd [8]: 2.5 nM

B16: clone 3C (Fab) (Fab, V domains shown)
VH: B1 VH with I34L, M50I, L63V, V71K, Y101W, G103A
VL: B1 VL with D28S, H32N, I51T, S91E, K92R
notes: same L1, L2, H1, H2 mutations as 3E; See note of m8; also called Fab 3C
- IC50, human NGF-dependent survival of mouse E13.5 trigeminal neurons (1.5 pM NGF) [9]: 5.6 pM
- IC50, human NGF-dependent survival of mouse E13.5 trigeminal neurons (15 pM NGF) [9]: 80.9 pM
- IC50, rat NGF-dependent survival of mouse E13.5 trigeminal neurons (1.5 pM NGF) (rat nerve growth factor): 6 pM
- IC50, rat NGF-dependent survival of mouse E13.5 trigeminal neurons (15 pM NGF) (rat nerve growth factor): 31.6 pM
- Kd [4]: 0.35 nM
- Kd [10]: ~0.35 nM
- koff [10]: ~1.4e-05 s⁻¹
- koff [5]: 1.4e-05 s⁻¹

B17: 8L2-6D5 (CDR-grafted antibody with framework mutation V71K) (Fab, V domains shown)
VH: B1 VH with V71K
VL: B1 VL
notes: Fab (human IgG2 CH1 + C-kappa, His tag at heavy chain C terminus); also called 8L2-6D5 Fab; 8L2-6D5 (control)
- IC50, human NGF-dependent survival of mouse E13.5 trigeminal neurons (1.5 pM NGF) [9]: 462 pM
- IC50, human NGF-dependent survival of mouse E13.5 trigeminal neurons (15 pM NGF) [9]: 1580 pM
- IC50, rat NGF-dependent survival of mouse E13.5 trigeminal neurons (1.5 pM NGF) (rat nerve growth factor): 169 pM
- IC50, rat NGF-dependent survival of mouse E13.5 trigeminal neurons (15 pM NGF) (rat nerve growth factor): 730 pM
- Kd [4]: 25 nM
- koff [2]: 0.001 s⁻¹
- koff [5]: 0.001 s⁻¹
- Kd [6]: 25 nM
- Kd [1]: ~15 nM
- koff [7]: 0.001 s⁻¹
- Kd [3]: 25 nM

B18: H19-L129 template Fab with L_S91E; L_K92S and H_Y101W; H_G103S (Fab, V domains shown)
VH: B1 VH with I34L, M50I, L63V, V71K, Y101W, G103S
VL: B1 VL with D28S, H32N, I51T, S91E, K92S
notes: See note of m8
- Kd [4]: 1.1 nM
- koff [5]: 4.7e-05 s⁻¹

B19: heavy chain library clone H9 (Fab, V domains shown)
VH: B1 VH with I34V, N35S, M50I, A62S, L63V, V71K
VL: B1 VL
notes: See note of m8
- koff [2]: 0.00041 s⁻¹
- Kd [3]: 10.2 nM

B21: heavy chain library clone H109 (Fab, V domains shown)
VH: B1 VH with I34S, M50I, V71K
VL: B1 VL
notes: paired with the CDR-grafted light chain; See note of m8
- koff [2]: 0.00016 s⁻¹
- Kd [3]: 4 nM

B22: H19-L129 (combined clone, H1 H2 L1 L2 matured) (Fab, V domains shown)
VH: B1 VH with I34L, M50I, L63V, V71K
VL: B1 VL with D28S, H32N, I51T
notes: See note of m8; also called H19-L129 Fab; Fab H19-L129
- IC50, human NGF-dependent survival of mouse E13.5 trigeminal neurons (1.5 pM NGF) [9]: 9.6 pM
- IC50, human NGF-dependent survival of mouse E13.5 trigeminal neurons (15 pM NGF) [9]: 60.1 pM
- IC50, rat NGF-dependent survival of mouse E13.5 trigeminal neurons (1.5 pM NGF) (rat nerve growth factor): 6 pM
- IC50, rat NGF-dependent survival of mouse E13.5 trigeminal neurons (15 pM NGF) (rat nerve growth factor): 31 pM
- Kd [11]: ~2.75 nM
- koff [12]: 0.00011 s⁻¹
- koff [5]: 0.00011 s⁻¹
- Kd [1]: ~1 nM

More lines, now with the values ahead:

- koff [2]: 0.00054 s⁻¹
- Kd [3]: 13.5 nM
B2: heavy chain library clone H227 (Fab, V domains shown)
VH: B1 VH with N35S, M50Q, A62S, L63V, V71K
VL: B1 VL
notes: See note of m8

- koff [2]: 0.00046 s⁻¹
- Kd [3]: 11 nM
B4: light chain library clone L208 (Fab, V domains shown)
VH: B1 VH with V71K
VL: B1 VL with D28Y, I51T
notes: See note of m8

- koff [2]: 0.00038 s⁻¹
- Kd [3]: 9.5 nM
B6: heavy chain library clone H222 (Fab, V domains shown)
VH: B1 VH with I34V, N35T, M50G, L63V, V71K
VL: B1 VL
notes: See note of m8

- koff [2]: 0.00056 s⁻¹
- Kd [3]: 14 nM
B7: light chain library clone L97 (Fab, V domains shown)
VH: B1 VH with V71K
VL: B1 VL with D28S, H32Q, I51V
notes: See note of m8

- koff [2]: 0.00074 s⁻¹
- Kd [3]: 18 nM
B12: light chain library clone L81 (Fab, V domains shown)
VH: B1 VH with V71K
VL: B1 VL with S26F, D28A, H32Q, S56T
notes: See note of m8

- koff [2]: 0.00045 s⁻¹
- Kd [3]: 11 nM
B15: light chain library clone L129 (Fab, V domains shown)
VH: B1 VH with V71K
VL: B1 VL with D28S, H32N, I51T
notes: paired with the CDR-grafted heavy chain; See note of m8

- koff [2]: 0.00082 s⁻¹
- Kd [3]: 20 nM
B20: light chain library clone L6 (Fab, V domains shown)
VH: B1 VH with V71K
VL: B1 VL with S26F, D28S, H32Q, I51A
notes: See note of m8

- koff [2]: 0.00038 s⁻¹
- Kd [3]: 9.5 nM
B23: heavy chain library clone H225 (Fab, V domains shown)
VH: B1 VH with I34V, N35T, M50G, A62S, L63V, V71K
VL: B1 VL
notes: See note of m8
